Consider three substances from patent publication US20050054026A1.

The assay addresses 9-fluorenylmethyloxycarbonyl (Fmoc)-glycyl-prolyl-glutamyl-glycyl-isoleucyl-alanyl-glycyl-tryptophanyl-glycine (Gly-Pro-Gln-Gly-Ile-Ala-Gly-Trp-Gly) (Artificial Sequence). Particulars: scale: fold.
The substance aminopeptidase-1 (enzyme) registered a degradation rate of Fmoc-… per unit weight of enzyme and unit time (first 15 minutes, RP-HPLC) of 14.2. The value for carboxypeptidase A (enzyme) was 38.8; that for collagenase (enzyme) was 26.9.
